Test results reported in US20070003556A1 (published 2007).

T1: CD22 (UniProt P20273 20-847, limits assumed)
T1 construct: whole, on cells; The assays used B-lymphoma cell lines Raji and Daudi, 'which are known to strongly express CD22'; also called CD22 on Raji cells; CD22 on Daudi cells
T1 sequence (looked up): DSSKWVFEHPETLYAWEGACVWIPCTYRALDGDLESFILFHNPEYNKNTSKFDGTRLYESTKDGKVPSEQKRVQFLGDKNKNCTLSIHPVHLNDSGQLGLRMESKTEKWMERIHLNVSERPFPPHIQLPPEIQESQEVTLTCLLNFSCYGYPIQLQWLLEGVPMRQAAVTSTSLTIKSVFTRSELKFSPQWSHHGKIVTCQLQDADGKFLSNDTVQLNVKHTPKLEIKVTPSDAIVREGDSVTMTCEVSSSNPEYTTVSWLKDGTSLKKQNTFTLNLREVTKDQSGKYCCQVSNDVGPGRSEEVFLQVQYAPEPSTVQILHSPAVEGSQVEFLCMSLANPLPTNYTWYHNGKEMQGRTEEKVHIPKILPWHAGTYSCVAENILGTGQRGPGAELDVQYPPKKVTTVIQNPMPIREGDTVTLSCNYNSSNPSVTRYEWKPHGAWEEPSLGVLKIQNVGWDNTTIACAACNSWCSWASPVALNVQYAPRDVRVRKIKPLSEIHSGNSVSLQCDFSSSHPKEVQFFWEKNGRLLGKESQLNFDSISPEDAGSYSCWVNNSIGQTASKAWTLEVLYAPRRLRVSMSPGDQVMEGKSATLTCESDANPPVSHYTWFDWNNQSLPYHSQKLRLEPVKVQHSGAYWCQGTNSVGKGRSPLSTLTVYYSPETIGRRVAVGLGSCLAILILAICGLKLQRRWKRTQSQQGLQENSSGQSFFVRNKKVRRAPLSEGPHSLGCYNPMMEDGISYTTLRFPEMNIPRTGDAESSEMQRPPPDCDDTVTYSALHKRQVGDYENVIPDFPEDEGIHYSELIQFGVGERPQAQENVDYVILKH

B1: LL2 diabody (other)
chain: QVQLQESGAELSKPGASVKMSCKASGYTFTSYWLHWIKQRPGQGLEWIGYINPRNDYTEYNQNFKDKATLTADKSSSTAYMQLSSLTSEDSAVYYCARRDITTFYWGQGTTLTVSSGGGGSDIQLTQSPSSLAVSAGENVTMSCKSSQSVLYSANHKNYLAWYQQKPGQSPKLLIYWASTRESGVPDRFTGSGSGTDFTLTISRVQVEDLAIYYCHQYLSSWTFGGGTKLEIKDYKDDDDK
notes: Diabody: a non-covalent dimer of two identical VH-(5-mer linker)-VL-Flag fragments; Expressed in DG44 cells and purified on anti-Flag M2 agarose; also called CD22 diabody; LL2 DB
B2: RFB4 diabody (other)
chain: EVQLVESGGGLVKPGGSLKLSCAASGFAFSIYDMSWVRQTPEKRLEWVAYISSGGGTTYYPDTVKGRFTISRDNAKNTLYLQMSSLKSEDTAMYYCARHSGYGSSYGVLFAYWGQGTLVTVSAGGGGSDIQMTQTTSSLSASLGDRVTISCRASQDISNYLNWYQQKPDGTVKLLIYYTSILHSGVPSKFSGSGSGTDYSLTISNLEQEDFATYFCQQGNTLPWTFGGGTKLEIKDYKDDDDK
notes: Diabody: a non-covalent dimer of two identical VH-(5-mer linker)-VL-Flag fragments; Transiently expressed in COS7 cells and purified on anti-Flag M2 agarose; also called CD22 diabody; RFB4 DB

What was measured:
CD22 [1] = molecular target: T1, CD22; experiment: flow cytometry on Raji cells, diabody at 20 ug/mL, detected with anti-Flag M2 antibody and FITC-anti-mouse IgG
Description: (§1) Purified LL2 diabody and RFB4 diabody were added to cells of the B-lymphoma cell line, Raji, in PBS containing 2% FCS and 0.02% NaN₃ such that the final concentrations were 20 μg/mL and 8 μg/mL, respectively. After reacting on ice for one hour, anti-Flag M2 antibody was added to the mixture, and then reacted on ice for another one hour. The cells were washed and reacted with FITC-anti-mouse IgG on ice for 30 minutes. Diabody binding to the cell surface was measured by flow cytometry (EPICS ELITE, COULTER).

CD22 [2] = molecular target: T1, CD22; experiment: flow cytometry on Raji cells, diabody at 8 ug/mL, detected with anti-Flag M2 antibody and FITC-anti-mouse IgG
Description: as §1

Binder	binding result (CD22 [1])	binding result (CD22 [2])
B1	binds	–
B2	–	binds
